Test results from the RNAGym collection of RNA variant scans (doi:10.1073/pnas.2313332121).
Variants at the floor of the assay were thinned out.

B1: TPR 5TU (parent)
chain: GGAUCUUCUCGAUCUAACAAAAAAGACAAAUCUGCCACAAAGCUUGAGAGCAUCUUCGGAUGCAGAGGCGGCAGCCUUCGGUGGCGCGAUAGCGCCAACGUUCUCAACUAUGACACGCAAAACGCGUGCUCCGUUGAAUGGAGUUUAUCAUG

Variants of: B1
Assay: polymerase ribozyme fitness, log enrichment relative to wild type (log ratio); higher = more active; in vitro selection for triplet polymerase activity
Outline: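 Each subunit of a heterodimeric triplet polymerase ribozyme was represented by a PCR-built, transcribed mutant library that underwent triplicate single-round in vitro selection with frozen incubation at −7 °C. Extended constructs were recovered by gel excision, streptavidin-bead capture and RT-PCR, and Illumina sequencing of input and output libraries kept genotypes with ≥10 input reads and ≥1 read per output. Fitness is the logarithm of genotype enrichment relative to wild-type enrichment, from inverse-variance-weighted replicate averages, with a logarithm base of 2.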
For GGAUCUUCUCGAUCUAACAAAAAAGACAAAUCUGCCACAACGCUUGAGAGCAUCUUCGGAUGCAGAGGCGGCAGCCUUCGGUGGUGCGAUAGCGCCAACGUUCUCAACUAUGACACGCAAAACGCGUGCUCCGUUGAAUGGAGUUUAUCAUG [A41C C85U], the “polymerase ribozyme fitness (log ratio)” value was -1.29. For GGAUCUUCUCGAUCUAACAAAAAAGACAAAUCUGCCACAACGCUUGAGAGCAUCUUCGGAUGCAGAGGCGGCAGCCUUCGGUGGCGCGAUAGCGCCAACGUUCUCAACUAUGACACGCAAAACGGGUGCUCCGUUGAAUGGAGUUUAUCAUG [A41C C125G], the “polymerase ribozyme fitness (log ratio)” value was -0.815. With GGAUCUUCUCGAUCUAACAAAAAAGACAAAUCUGCCACAACGCUUAAGAGCAUCUUUGGAUGCAGAGGCGGCAGCCUUCGGUGGCGCGAUAGCGUCAACGUUCUCAACUAUGACGCGCAAAACGCGUGCUCCGUUGAAUGGAGUUUAUCAUG [A41C G46A C57U C95U A115G] the “polymerase ribozyme fitness (log ratio)” value was -3.25. In the case of GGAUCUUCUCGAUCUAACAAAAAAGACAAAUCUGCCACAACGCUUGAGAGCAUCUAAGGAUGCAGAGGCGGCAGCCUUCGGUGGCGCGAUAGCGCCAACGUUCUCAACUAUGACUUGCAAAACGCGUGCUCCGUUGAAUGGAGUUUAUCAUG [A41C U56A C57A A115U C116U], the “polymerase ribozyme fitness (log ratio)” value is reported as -2.62. With GGAUCUUCUCGAUCUAACAAAAAAGACAAAUCUGCCACAACGCUUGAGAGCAUCUUCGGAUGCAGAGGCGGCAGCCUUCGGUGGCGCGAUAGCGCCAACGUUCUCAACUAUGACACGCAAAACGCGUGCUCCGUCGAAUGGAGUUUAUCAUG [A41C U135C] the “polymerase ribozyme fitness (log ratio)” value was -3.55. In the case of GGAUCUUCUCGAUCUAACAAAAAAGACAAAUCUGCCACAAGGCUUGAGAGCAUCUUUGGAUGCAGAGGCGGCAGCCUUCGGUGGUGCGAUAGCGCCAACGUUCUCAACUAUGACAUGCAAAACGCGUGCUCCGUUGAAUGGAGUUUAUCAUG [A41G C57U C85U C116U], the “polymerase ribozyme fitness (log ratio)” value is reported as 0.221. For GGAUCUUCUCGAUCUAACAAAAAAGACAAAUCUGCCACAACGCUUGAGAGCAUCUUCGGAUGCAGAGGCGGCAGCCUUCGGUGACGCGAUAGCGCCAACGUUCUCAACUAUGACACGCAAAACGCGUGCUCCGUUGAAUGGAGUUUAUCAUG [A41C G84A], the “polymerase ribozyme fitness (log ratio)” value was -0.601. With GGAUCUUCUCGAUCUAACAAAAAAGACAAAUCUGCCACAACGCUUGAGAGCAUCUUCGGAUGCAGAGGCGGCAGCCUUCGGUGGCGCGAUAUCGCCAACGUUCUCAACUAUGACACGCAAAACGCGUGCUCCGUUGAAUGGAGUUUAUCAUG [A41C G92U] the “polymerase ribozyme fitness (log ratio)” value was -1.08. In the case of GGAUCUUCUCGAUCUAACAAAAAAGACAAAUCUGCCACAACGCUUGAGAGCAUCUUCGGAUGCAGAGGCGGCAGCCUUCGGUGGCGCGAUAGCGCCAACGGUCUCAACUAUGACACGCAAAACGCGUGCUCCGUUGAAUGGAGUUUAUCAUG [A41C U101G], the “polymerase ribozyme fitness (log ratio)” value is reported as -0.344. With GGAUCUUCUCGAUCUAACAAAAAAGACAAAUCUGCCACAAGGCUUGCGAGCAUCUUCGGAUGCAGAGGCGGCAGCCUUCGCUGGCGCGAUAGCGCCAACGUUCUCAACUAUGACACGCAAAACGCGUGCUCCGUUGAAUGGAGUUUAUCAUG [A41G A47C G81C] the “polymerase ribozyme fitness (log ratio)” value was -0.0928. With GGAUCUUCUCGAUCUAACAAAAAAGACAAAUCUGCCACAACGCUUGACAGCAUCUACGGAUGCAGAGGCGGCAGCCUUCGGUGGCGCGCUAGCGCCAACGUUUUCAACUAUGACACGCAAAACGCGUGCUCCGUUGAAUGGAGUUUAUCAUG [A41C G48C U56A A89C C103U] the “polymerase ribozyme fitness (log ratio)” value was -2.34. With GGAUCUUCUCGAUCUAACAAAAAAGACAAAUCUGCCACAAGGCUUGAGAGCAUCUUCGGAUGUAGAGGCGGCAGCCUUCGGUGGCGCGAUAGCGCCAACGUUCUCAACUAUGACACGCAAAACGCGUGCUCCGUUGAAUGGAGUUUAUCAUG [A41G C63U] the “polymerase ribozyme fitness (log ratio)” value was 0.774. With GGAUCUUCUCGAUCUAACAAAAAAGACAAAUCUGCCACAACGCUUGAGAGCAACUUCGGAUGCAGAGGCGGCAGCCUUCGGUGGCGCGAUAUCGCCAACGUUCUCAACUAUGACACGCAAAACGCGUGCUCCGUUGAAUGGAGUUUAUCAUG [A41C U53A G92U] the “polymerase ribozyme fitness (log ratio)” value was -1.22. For GGAUCUUCUCGAUCUAACAAAAAAGACAAAUCUGCCACAAGGCUUGAGAGCAUCUUCGGAUGCAGAGGCGGCAGCCUUCGGUGGAGCGAUAGCGCCAACGUUCUCAACUAUGACACGCAAAACGCGUGCGCCGUUGAAUGGAUUUUGUCAUG [A41G C85A U130G G143U A147G], the “polymerase ribozyme fitness (log ratio)” value was no more than -4.2. With GGAUCUUCUCGAUCUAACAAAAAAGACAAAUCUGCCACAACGCUUGAGAGCAUCUUCGGAUGCAGAGGCGGCAGCCUUCGGUGGCGGGAUAGCGCCAACGUUCUCAACUAUGAUACGCAAAACGCGUGCUCCGUUGAAUGGAGUUUAUCAUG [A41C C87G C114U] the “polymerase ribozyme fitness (log ratio)” value was no more than -4.2. With GGAUCUUCUCGAUCUAACAAAAAAGACAAAUCUGCCACAACGCUUGAGAGCAUCUUCGAAUGCAGAGGCGGCAGCCUUCGGUGGCUCGAUAGCGCCAACGUUCUCAACUAUGACACGCAAAACGCGUGCUCCGUUGAAUGGAGUUUAUCAUG [A41C G59A G86U] the “polymerase ribozyme fitness (log ratio)” value was -2.6. For GGAUCUUCUCGAUCUAACAAAAAAGACAAAUCUGCCACAAGGCUUGAGAGCAUCUUCGGAUGCAGAGGCGGCAGCUUUCGGUGGCGCGAUAGGGCCAACGUUCUCGACUAUGACACGCAAAGCGCGUGAUCCGUUGAAUGUAGUUUAUCAUG [A41G C76U C93G A106G A122G C129A G141U], the “polymerase ribozyme fitness (log ratio)” value was no more than -4.2. With GGAUCUUCUCGAUCUAACAAAAAAGACAAAUCUGCCACAACGCUUGAGAGCAUCUUCGGAUGCAGAGGCGGCAGCCUUCGGUGGCGCGAUAGCGCAAACGUUCUCAACUAUGACACGCAAAACGCGUGCUCCGUUGAAUGGAGUUAAUCAUG [A41C C96A U146A] the “polymerase ribozyme fitness (log ratio)” value was -0.97. In the case of GGAUCUUCUCGAUCUAACAAAAAAGACAAAUCUGCCACAAGGCUUGAGAGCAUCUUCGGAUGCAGAGGCGGCAGCCUUCGGUGGCGCGGUAUCGCCAACAUUCUCAACUAUGACACCCAAAACGCGUGCUCCAUUGAAUGGAUUUUAUCAUG [A41G A89G G92U G100A G117C G133A G143U], the “polymerase ribozyme fitness (log ratio)” value is reported as no more than -4.2.
